{"source": "paper PMC3496993", "target": "α2β1 integrin on K562 cells transfected with the α2 integrin subunit (not stated | human (endogenous in K562)) (UniProt P17301)", "sequence (P17301 30-1181, chain 1 of 2)": "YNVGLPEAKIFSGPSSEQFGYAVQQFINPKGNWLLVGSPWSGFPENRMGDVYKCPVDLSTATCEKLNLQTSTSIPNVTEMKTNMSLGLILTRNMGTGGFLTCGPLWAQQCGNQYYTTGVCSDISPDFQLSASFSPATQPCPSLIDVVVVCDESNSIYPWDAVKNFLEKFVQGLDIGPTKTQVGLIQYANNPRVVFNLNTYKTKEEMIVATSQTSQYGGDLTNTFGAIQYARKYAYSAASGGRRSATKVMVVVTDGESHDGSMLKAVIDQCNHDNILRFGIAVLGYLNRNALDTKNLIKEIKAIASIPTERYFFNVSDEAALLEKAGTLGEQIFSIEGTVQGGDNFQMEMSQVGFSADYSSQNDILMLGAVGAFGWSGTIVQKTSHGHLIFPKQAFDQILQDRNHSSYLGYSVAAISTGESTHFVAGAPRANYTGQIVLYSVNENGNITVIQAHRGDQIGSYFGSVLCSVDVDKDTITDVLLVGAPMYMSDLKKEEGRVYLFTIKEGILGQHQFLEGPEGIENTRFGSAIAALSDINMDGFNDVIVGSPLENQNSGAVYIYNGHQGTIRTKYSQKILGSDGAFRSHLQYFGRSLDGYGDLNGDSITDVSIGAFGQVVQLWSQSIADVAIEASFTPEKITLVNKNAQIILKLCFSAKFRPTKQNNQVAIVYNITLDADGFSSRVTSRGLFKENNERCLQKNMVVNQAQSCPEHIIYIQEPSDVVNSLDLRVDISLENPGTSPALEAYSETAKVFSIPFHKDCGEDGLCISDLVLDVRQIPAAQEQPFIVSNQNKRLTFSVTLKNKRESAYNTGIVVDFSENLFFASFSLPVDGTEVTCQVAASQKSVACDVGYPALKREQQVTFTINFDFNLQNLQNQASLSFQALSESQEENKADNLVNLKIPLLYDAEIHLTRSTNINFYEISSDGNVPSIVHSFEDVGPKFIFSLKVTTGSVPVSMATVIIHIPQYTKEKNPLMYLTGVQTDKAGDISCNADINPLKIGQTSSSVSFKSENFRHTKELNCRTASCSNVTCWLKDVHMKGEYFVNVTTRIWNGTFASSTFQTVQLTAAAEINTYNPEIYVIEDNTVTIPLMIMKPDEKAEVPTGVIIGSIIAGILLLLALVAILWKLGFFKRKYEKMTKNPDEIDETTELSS", "sequence (P05556 21-798, chain 2 of 2, further chain)": "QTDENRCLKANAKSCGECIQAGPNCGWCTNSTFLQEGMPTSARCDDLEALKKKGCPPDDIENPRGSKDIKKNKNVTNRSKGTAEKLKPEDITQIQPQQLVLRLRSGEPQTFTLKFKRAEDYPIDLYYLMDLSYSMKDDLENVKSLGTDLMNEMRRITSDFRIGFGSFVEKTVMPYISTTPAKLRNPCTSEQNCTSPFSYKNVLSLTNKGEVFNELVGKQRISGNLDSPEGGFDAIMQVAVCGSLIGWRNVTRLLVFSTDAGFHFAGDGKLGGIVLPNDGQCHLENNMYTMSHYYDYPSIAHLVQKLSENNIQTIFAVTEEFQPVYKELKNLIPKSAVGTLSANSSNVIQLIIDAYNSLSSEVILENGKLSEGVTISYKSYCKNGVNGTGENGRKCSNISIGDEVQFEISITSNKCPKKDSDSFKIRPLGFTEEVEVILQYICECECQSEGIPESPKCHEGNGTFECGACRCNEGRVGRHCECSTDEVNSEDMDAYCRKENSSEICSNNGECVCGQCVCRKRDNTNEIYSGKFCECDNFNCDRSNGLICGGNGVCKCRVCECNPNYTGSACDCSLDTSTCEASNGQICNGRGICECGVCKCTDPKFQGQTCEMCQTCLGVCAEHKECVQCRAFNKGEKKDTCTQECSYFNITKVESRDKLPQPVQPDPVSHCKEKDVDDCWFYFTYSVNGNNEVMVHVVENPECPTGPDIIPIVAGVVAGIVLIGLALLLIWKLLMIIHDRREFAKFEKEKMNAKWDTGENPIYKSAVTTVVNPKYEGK"}
{"substance": "Vixapatin (VP12), C-type lectin-like protein from Vipera xantina palestinae venom (complex)", "values": [{"measurement": "IC50 of inhibition of adhesion of α2K562 transfectants to immobilised collagen I (blocks collagen I with α2β1), dose-response of Vixapatin", "value": 3.2, "unit": "nM"}]}
